Patent publication US20160311887A1 (CAMBRIDGE ENTERPRISE, published 2016)
Substitutions are numbered along the chain they refer to. In names and notes the source's numbering stands. Read-outs that look alike come from different tables or passages of the source.

B1: A22 WT PCI (other)
chain: APSSRRDFTFDLYRALASAAPSQNIFFSPVSISMSLAMLSLGAGSSTKMQILEGLGLNLQKSSEKELHRGFQQLLQELNQPRDGFQLSLGNALFTDLVVDLQDTFVSAMKTLYLADTFPTNFRDSAGAMKQINDYVAKQTKGKIVDLLKNLDSNAVVIMVNYIFFKAKWETSFNHKGTQEQDFYVTSETVVRVPMMSREDQYHYLLDRNLSCRVVGVPYQGNATALFILPSEGKMQQVENGLSEKTLRKWLKMFKKRQLELYLPKFSIEGSYQLEKVLPSLGISNVFTSHADLSGISNHSNIQVSEMVHKAVVEVDESGTRAAAATGTIFTFRSARLNSQRLVFNRPFLMFIVDNNILFLGKVNRP
notes: Serpin; E. coli, SUMO tag removed; also called A22 wild-type (WT) PCI
B2: A22 P1′K PCI (other)
chain: B1 chain with S334K
notes: As A22 WT PCI
B3: A22 P2KP1′K PCI (other)
chain: B1 chain with F332K, S334K
notes: As A22 WT PCI
B4: FL α1AT Pitts C232S P2KP1′Q (other)
chain: SDPQGDAAQKTDTSHHDQDHPTFNKITPNLAEFAFSLYRQLAHQSNSTNIFFSPVSIATAFAMLSLGTKADTHDEILEGLNFNLTEIPEAQIHEGFQELLRTLNQPDSQLQLTTGNGLFLSEGLKLVDKFLEDVKKLYHSEAFTVNFGDTEEAKKQINDYVEKGTQGKIVDLVKELDRDTVFALVNYIFFKGKWERPFEVKDTEEEDFHVDQVTTVKVPMMKRLGMFNIQHSKKLSSWVLLMKYLGNATAIFFLPDEGKLQHLENELTHDIITKFLENEDRRSASLHLPKLSITGTYDLKSVLGQLGITKVFSNGADLSGVTEEAPLKLSKAVHKAVLTIDEKGTEAAGAMFLEAIKRQIPPEVKFNKPFVFLMIEQNTKSPLFMGKVVNPTQK
B5: FL α1AT Pitts C232S (other)
chain: B4 chain with K357P, Q359S
notes: Serpin; E. coli, SUMO tag removed; also called α1-antitrypsin Pittsburgh
B6: FL α1AT Pitts C232S P2KP1′K (other)
chain: B4 chain with Q359K
notes: E. coli, SUMO tag removed; also called P2KP1′K α1AT; P2KP1′K mutant of α1AT Pitts
B7: FL α1AT Pitts C232S P2RP1′Q (other)
chain: B4 chain with K357R

Key:
[1] = target: T1, activated Protein C (APC) (human, UniProt P04070 43-197; P04070 212-461); assay: ratio of rate constants, APC over fXa
T1 construct: also called human plasma APC
Experimental: (§1) The inhibition of APC was reduced but still considerable, especially for the variants of α₁AT and the PCI variants in the presence of heparin. However, the specificity of PCI and α₁AT Pitts is not limited to thrombin and APC. […] In order not to inhibit coagulation, our variants also need to be specific for APC over fXa. We therefore also determined the rate constants of inhibition of PCI and α₁AT and their variants for fXa (Table 3). Rate constants were measured under pseudo-first-order conditions using an excess of serpin over protease. Serpin and protease were incubated together for varying lengths of time and the residual activity determined by adding an excess of chromogenic substrate (S2222) for the protease. Plots of residual protease activity over time gave the observed rate constant kobs. The second-order rate constant, k₂, is the slope of the plot of kobs versus serpin concentration (fitted using a linear regression model). Standard errors of the slope are shown (Table 3).

[2] = target: T1, activated Protein C (APC); assay: ratio of rate constants, APC over fXIa
Experimental: (§2) Rate constants of thrombin and APC inhibition were measured under pseudo-first-order conditions using an excess of serpin over protease (Table 1). Serpin and protease were incubated together for varying lengths of time and the residual activity was determined by adding an excess of chromogenic substrate for the protease (S2238 for thrombin and […] for APC). Residual protease activity was then measured by following the absorbance at 405 nm. Plots of residual protease activity over time gave the observed rate constant kobs. The second-order rate constant, ₖ₂, is the slope of the plot of kobs versus serpin concentration (fitted using a linear regression model). Standard errors of the slope are shown.
(§3) Second-order rate constants of inhibition for inhibition of fXIa by PCI and the P2KP1′K variant were measured under pseudo-first-order conditions using an excess of serpin over protease. Serpin and protease were incubated together for varying lengths of time and the residual activity determined by adding an excess of chromogenic substrate for the protease (S2366). Plots of residual protease activity over time gave the observed rate constant kobs. The second-order rate constant, k₂, is the slope of the plot of kobs versus serpin concentration (fitted using a linear regression model).

[3] = target: T1, activated Protein C (APC); assay: ratio of rate constants, APC over thrombin
Experimental: as §2

[4] = target: T1, activated Protein C (APC); assay: ratio of rate constants with heparin, APC over thrombin
Experimental: (§4) PCI, unlike α₁AT, binds heparin and this binding considerably increases its inhibition of thrombin and APC (Pratt & Church, 1992). We therefore tested the inhibition of thrombin and APC by the P1′K and P2KP1′K PCI mutants in the presence of heparin to see if the swap in specificity seen in Table 1 would persist. Rate constants were measured under pseudo-first-order conditions using an excess of PCI over protease. PCI was preincubated with an equimolar concentration of unfractionated heparin for 30 min prior to the experiment. PCI:heparin and protease were incubated together for varying lengths of time and the residual activity after certain timepoints determined by adding an excess of chromogenic substrate for the protease mixed with polybrene to bind the heparin. Plots of residual protease activity over time gave the observed rate constant kobs. The second-order rate constant, k₂, is the slope of the plot of kobs versus serpin concentration (fitted using a linear regression model). Standard errors of the slope are shown. […] This might be due to the substrate pathway or complex dissociation. As for the inhibition in the absence of heparin, the P1′K and P2KP1′K mutants of PCI, unlike the WT protein were specific for APC over thrombin (Table 2).

thrombin [5] = target: T2, thrombin (UniProt P00734 328-622); assay: pseudo-first-order inhibition kinetics (repeated from Table 1)
Experimental: as §2

[6] = target: T1, activated Protein C (APC); assay: as above
Experimental: as §2

[7] = target: T1, activated Protein C (APC); assay: ratio of rate constants, APC over thrombin (repeated from Table 1)
fXa [8] = target: T3, fXa (UniProt P00742 41-179; P00742 235-488); assay: pseudo-first-order inhibition kinetics, residual chromogenic activity (S2222)
T3 construct: also called factor Xa
Experimental: as §1

thrombin [9] = target: T2, thrombin; assay: pseudo-first-order inhibition kinetics, residual chromogenic activity, no heparin
Experimental: as §2

[10] = target: T1, activated Protein C (APC); assay: as above
Experimental: as §2

thrombin [11] = target: T2, thrombin; assay: pseudo-first-order inhibition kinetics, residual chromogenic activity, with equimolar unfractionated heparin
Experimental: as §4

[12] = target: T1, activated Protein C (APC); assay: as above
Experimental: as §4

thrombin [13] = target: T2, thrombin; assay: pseudo-first-order inhibition kinetics, residual chromogenic activity
[14] = target: T1, activated Protein C (APC); assay: as above
fXa [15] = target: T3, fXa; assay: as above
[16] = target: T1, activated Protein C (APC); assay: ratio of rate constants, APC over fXIa; remark: listed apart in the source
Experimental: APC inhibition is shown for comparison (from Table 1). Standard errors are shown.
as §3, with “In addition we wanted to determine whether FL α₁AT Pitts C232S P2KP1′K affected the intrinsic (contact activation) pathway. Second-order” for “Second-order”, “inhibition” for “inhibition for inhibition”, “FL α₁AT Pitts C232S” for “PCI”, “pseudo first-order” for “pseudo-first-order”, “model). Standard errors of the slope are given.” for “model).”

[17] = target: T1, activated Protein C (APC); assay: ratio of rate constants, APC over fXa (repeated from Table 3)
Experimental: as §1

[18] = target: T1, activated Protein C (APC); assay: ratio of rate constants, APC over thrombin (repeated from Table 1); remark: listed apart in the source
Experimental: as §2

thrombin [19] = target: T2, thrombin; assay: pseudo-first-order inhibition kinetics, residual chromogenic activity; remark: listed apart in the source
Experimental: as §2

[20] = target: T1, activated Protein C (APC); assay: as above; remark: listed apart in the source
Experimental: as §2

thrombin [21] = target: T2, thrombin; assay: pseudo-first-order inhibition kinetics, residual chromogenic activity (S2238)
Experimental: as §2

T3 sequence (P00742 41-179 limits assumed, form in doubt, chain 1 of 2): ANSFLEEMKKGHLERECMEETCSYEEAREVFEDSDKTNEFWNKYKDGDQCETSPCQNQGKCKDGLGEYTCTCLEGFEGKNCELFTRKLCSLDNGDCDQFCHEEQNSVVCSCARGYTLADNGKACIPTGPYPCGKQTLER
T3 sequence (P00742 235-488 limits assumed, form in doubt, chain 2 of 2): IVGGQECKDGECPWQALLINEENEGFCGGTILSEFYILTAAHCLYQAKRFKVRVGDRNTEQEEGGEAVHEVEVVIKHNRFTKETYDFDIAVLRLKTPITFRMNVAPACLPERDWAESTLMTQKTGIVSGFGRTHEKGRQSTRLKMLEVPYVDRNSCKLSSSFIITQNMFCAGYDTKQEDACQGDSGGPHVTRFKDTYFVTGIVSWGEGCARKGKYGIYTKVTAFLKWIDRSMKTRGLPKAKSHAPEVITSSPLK
T1 sequence (P04070 43-197, chain 1 of 2): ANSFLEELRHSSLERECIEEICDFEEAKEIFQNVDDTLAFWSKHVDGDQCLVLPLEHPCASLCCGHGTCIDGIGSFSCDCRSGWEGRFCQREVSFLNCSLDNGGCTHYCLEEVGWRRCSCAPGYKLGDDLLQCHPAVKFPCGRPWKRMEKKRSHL
T1 sequence (P04070 212-461, chain 2 of 2): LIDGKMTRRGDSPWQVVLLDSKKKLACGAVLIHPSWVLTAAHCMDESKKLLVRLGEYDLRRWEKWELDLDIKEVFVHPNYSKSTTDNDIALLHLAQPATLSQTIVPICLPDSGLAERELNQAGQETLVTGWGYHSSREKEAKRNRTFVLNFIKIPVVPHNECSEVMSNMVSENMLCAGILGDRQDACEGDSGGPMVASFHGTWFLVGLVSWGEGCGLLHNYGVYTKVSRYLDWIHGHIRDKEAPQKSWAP

Binder	fold inhibition APC/fXa [1]	fold inhibition APC/thrombin [3]	fold inhibition APC/thrombin [4]	second-order rate constant of inhibition [6]	second-order rate constant of inhibition (fXa [8])	second-order rate constant of inhibition [10]	second-order rate constant of inhibition [12]	also measured
B1	0.07 fold	0.02 fold	0.4 fold	680 M⁻¹ s⁻¹	10300 M⁻¹ s⁻¹	680 M⁻¹ s⁻¹	564000 M⁻¹ s⁻¹	inhibition of APC/fXIa [2]: 0.08 fold; second-order rate constant of inhibition (thrombin [5]): 28200 M⁻¹ s⁻¹; inhibition of APC/thrombin [7]: 0.02 fold; second-order rate constant of inhibition (thrombin [9]): 28200 M⁻¹ s⁻¹; second-order rate constant of inhibition (thrombin [11]): 1.31e+06 M⁻¹ s⁻¹
B2	1.7 fold	40 fold	18900 fold		520 M⁻¹ s⁻¹	880 M⁻¹ s⁻¹	322000 M⁻¹ s⁻¹	second-order rate constant of inhibition (thrombin [9]): 22 M⁻¹ s⁻¹; second-order rate constant of inhibition (thrombin [11]): 17 M⁻¹ s⁻¹
B3		9.3 fold	1330 fold	280 M⁻¹ s⁻¹		280 M⁻¹ s⁻¹	146000 M⁻¹ s⁻¹	inhibition of APC/fXIa [2]: 12.2 fold; inhibition of APC/thrombin [7]: 9.3 fold
B4								second-order rate constant of inhibition (thrombin [13]): 2.9 M⁻¹ s⁻¹; second-order rate constant of inhibition [14]: 9000 M⁻¹ s⁻¹; second-order rate constant of inhibition (fXa [15]): 170 M⁻¹ s⁻¹
B5	2.6 fold	0.4 fold		108000 M⁻¹ s⁻¹	41300 M⁻¹ s⁻¹			inhibition of APC/fXIa [16]: 0.3 fold; inhibition of APC/fXa [17]: 2.6 fold; second-order rate constant of inhibition (thrombin [5]): 293000 M⁻¹ s⁻¹; inhibition of APC/thrombin [18]: 0.4 fold; second-order rate constant of inhibition (thrombin [19]): 293000 M⁻¹ s⁻¹; second-order rate constant of inhibition [20]: 108000 M⁻¹ s⁻¹
B6	126 fold			15100 M⁻¹ s⁻¹	120 M⁻¹ s⁻¹			inhibition of APC/fXIa [16]: 32.2 fold; inhibition of APC/fXa [17]: 126 fold; second-order rate constant of inhibition [20]: 15100 M⁻¹ s⁻¹; binding result (thrombin [21]): no binding (tested: 4 h)
B7								second-order rate constant of inhibition (thrombin [13]): 5.4 M⁻¹ s⁻¹; second-order rate constant of inhibition [14]: 8300 M⁻¹ s⁻¹; second-order rate constant of inhibition (fXa [15]): 130 M⁻¹ s⁻¹
